Test results: patent US20130157289A1 (Genentech, published 2013)

Key:
human STEAP-1 [1] = target: T1, human STEAP-1 (human, UniProt Q9UHE8 1-339); assay: FACS of display-normalised Fab phage, aligned histograms; no cell name on the panel, traces as in FIG. 6A (LB50)
T1 construct: Six-transmembrane cell surface antigen; Exogenous full length STEAP-1 stably expressed in 293 cells (LB50, LB48, LB53) and PC3 cells (PS5.4); endogenous in LNCaP / LNCaP-BR cells; also called Six Transmembrane Epithelial Antigen of the Prostate 1
T1 sequence (Q9UHE8 other isoform, or with tags, fused parts or gaps): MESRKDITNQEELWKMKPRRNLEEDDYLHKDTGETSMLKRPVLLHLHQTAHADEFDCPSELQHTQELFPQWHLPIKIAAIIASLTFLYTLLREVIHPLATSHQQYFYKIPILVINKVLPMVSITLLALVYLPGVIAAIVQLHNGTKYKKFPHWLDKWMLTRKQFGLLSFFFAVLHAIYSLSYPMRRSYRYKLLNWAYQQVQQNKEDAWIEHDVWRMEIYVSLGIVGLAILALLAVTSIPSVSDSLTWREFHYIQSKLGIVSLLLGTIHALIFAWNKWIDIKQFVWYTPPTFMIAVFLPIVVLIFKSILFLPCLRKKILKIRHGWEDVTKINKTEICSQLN
Method: Phage expressing Fab variants were first assessed for their Fab display level using an phage ELISA used to detect a […] fused to the light chain of the Fab. MaxiSorp microtiter plates were coated with anti-gD 1766 at 10 μg/ml in PBS over night and then blocked with Casein Blocker. Phage from culture supernatants were serially diluted in PBST containing 0.5% BSA in a tissue culture microtiter plate and transferred to the coated wells for 1 h to capture the Fab displaying phage. The plate was washed with PBST and HRP conjugated anti-M13 (Amersham Pharmacia Biotech) was added (1:5000 in PBST containing 0.5% BSA) for 40 min. The plate was washed with PBST and developed by adding Tetramethylbenzidine substrate (Kirkegaard and Perry Laboratories, Gaithersburg, Md.). The absorbance at 405 nm was used as an estimate of the Fab display level on the surface of the phage. Phage preparations were normalized for display by dilution. Low displaying phage (e.g. the chimera) were used neat for FACS analysis.
For FACS analysis of phage binding, cells were removed from the plate using 2 mM EDTA, collected in a 15 mL conical bottom tube and pelleted by centrifugation. Cells (5×10⁵ cells per sample) were re-suspended in 100 μL of phage (normalized by display level) in FACS buffer (1% FBS, PBS with 2 mM EDTA) and incubated for 1-2 hours on ice. Samples were washed twice with FACS buffer by centrifugation. Anti-M13 5G7 control antibody (Genentech, Inc. South San Francisco, Calif.) was added at 2 μg/mL and incubated on ice for at least 45 minutes. Samples were washed twice with FACS buffer by centrifugation. A 1:200 dilution of anti-mouse PE (R-phycoerythrin goat anti-mouse IgG Fcy Fragment, Jackson Immunoresearch) was added and incubated on ice for 30 minutes. Samples were again washed twice with FACS buffer by centrifugation and analyzed by FACS.

human STEAP-1 [2] = target: T1, human STEAP-1; assay: Scatchard analysis on 293 STEAP-1 NT LB50 cells
Text: (§1) IgG was purified with Protein G affinity chromatography.

human STEAP-1 [3] = target: T1, human STEAP-1; assay: Scatchard analysis on LNCaP.BR cells, Assay 739; displacement curve (Bound/Total against Total, nM) and Scatchard plot (Bound/Free against Bound, pM)
Text: as §1

human STEAP-1 [4] = target: T1, human STEAP-1; assay: Scatchard analysis on 293 cells transiently expressing human STEAP-1 (293-Transient Human Steap1)
Text: as §1

human STEAP-1 [5] = target: T1, human STEAP-1; assay: Scatchard analysis on 293.LB50 cells, Assay 737; displacement curve and Scatchard plot
Text: as §1

[6] = target: T2, cynomolgus monkey STEAP-1 (cynomolgus monkey, UniProt Q9UHE8 1-339 (human entry)); assay: Scatchard analysis on 293 cells transiently expressing cynomolgus STEAP-1 (293-Transient Cyno Steap1); side note: Same Affinity for Human & Cyno
T2 construct: the expressing cell line is not described; also called cyno STEAP-1
T2 sequence (Q9UHE8 other isoform, or with tags, fused parts or gaps): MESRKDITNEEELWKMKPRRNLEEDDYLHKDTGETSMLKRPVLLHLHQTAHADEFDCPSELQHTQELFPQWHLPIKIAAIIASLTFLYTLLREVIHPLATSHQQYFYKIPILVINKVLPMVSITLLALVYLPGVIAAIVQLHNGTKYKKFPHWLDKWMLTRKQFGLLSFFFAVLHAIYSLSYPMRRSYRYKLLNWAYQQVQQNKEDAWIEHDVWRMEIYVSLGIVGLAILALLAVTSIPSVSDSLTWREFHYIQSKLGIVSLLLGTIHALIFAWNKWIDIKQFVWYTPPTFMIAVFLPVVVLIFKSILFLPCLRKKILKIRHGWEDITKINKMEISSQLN

human STEAP-1 [7] = target: T1, human STEAP-1; assay: Scatchard analysis on 293-LB50 cells, average value
Text: as §1

human STEAP-1 [8] = target: T1, human STEAP-1; assay: Scatchard analysis on LNCaP-BR cells, average value
Text: as §1

human STEAP-1 [9] = target: T1, human STEAP-1; assay: Scatchard analysis on LNCaP.BR cells, Assay 740; displacement curve and Scatchard plot
Text: as §1

human STEAP-1 [10] = target: T1, human STEAP-1; assay: Scatchard analysis on 293.LB50 cells, Assay 738; displacement curve and Scatchard plot
Text: as §1

B1: 37 Phage (Fab, V domains shown)
VH: EVQLVESGGGLVQPGGSLRLSCAASGYSITSDYAWNWIRQAPGKGLEWVGYISNSGSTSYNPSLKSRFTISRDNSKNTLYLQMNSLRAEDTAVYYCARERNYDYDDYYYAMDYWGQGTLVTVSS
VL: DIQMTQSPSSLSASVGDRVTITCKSSQSLLYRSNQKNYLAWYQQKPGKAPKLLIYWASTRESGVPSRFSGSGSGTDFTLTISSLQPEDFATYYCQQYYNYPRTFGQGTKVEIKR
notes: monovalent Fab-g3 phage display; also called V37I variant of the 120 graft
binding result (human STEAP-1 [1]): binds

B2: 67 Phage (Fab, V domains shown)
VH: EVQLVESGGGLVQPGGSLRLSCAASGYSITSDYAWNWVRQAPGKGLEWVGYISNSGSTSYNPSLKSRITISRDNSKNTLYLQMNSLRAEDTAVYYCARERNYDYDDYYYAMDYWGQGTLVTVSS
VL: DIQMTQSPSSLSASVGDRVTITCKSSQSLLYRSNQKNYLAWYQQKPGKAPKLLIYWASTRESGVPSRFSGSGSGTDFTLTISSLQPEDFATYYCQQYYNYPRTFGQGTKVEIKR
notes: monovalent Fab-g3 phage display; also called F67I variant of the 120 graft
binding result (human STEAP-1 [1]): binds

B3: humanized anti-STEAP-1 120v.24 (antibody, name in Kabat numbering, V domains shown)
VH: EVQLVESGGGLVQPGGSLRLSCAVSGYSITSDYAWNWVRQAPGKGLEWVGYISNSGSTSYNPSLKSRFTISRDNSKNTLYLQMNSLRAEDTAVYYCARERNYDYDDYYYAMDYWGQGTLVTVSS
VL: DIQMTQSPSSLSASVGDRVTITCKSSQSLLYRSNQKNYLAWYQQKPGKAPKLLIYWASTRESGVPSRFSGSGSGTDFTLTISSLQPEDFATYYCQQYYNYPRTFGQGTKVEIKR
notes: constant regions not specified; also called humanized 120v.24 (clone 67); humanized version 24
fold improvement in Kd over the 120 chimera and murine M2-120.545 (human STEAP-1 [2]): 2 fold

B4: Original Thio 120V24 (antibody, V domains shown)
VH: EVQLVESGGGLVQPGGSLRLSCAVSGYSITSDYAWNWVRQAPGKGLEWVGYISNSGSTSYNPSLKSRFTISRDNSKNTLYLQMNSLRAEDTAVYYCARERNYDYDDYYYAMDYWGQGTLVTVSS
VL: DIQMTQSPSSLSASVGDRVTITCKSSQSLLYRSNQKNYLAWYQQKPGKAPKLLIYWASTRESGVPSRFSGSGSGTDFTLTISSLQPEDFATYYCQQYYNYPRTFGQGTKVEIKR
notes: cysteine engineered form of humanized 120.v24; also called Orig Thio PUR 12813; Thio Mab
Kd (human STEAP-1 [3]): 1.1 nM | Kd (human STEAP-1 [4]): 1.4 nM | Kd (human STEAP-1 [5]): 1.7 nM | Kd [6]: 1.1 nM | Kd (human STEAP-1 [7]): 1.9 nM | Kd (human STEAP-1 [8]): 1.4 nM | Kd (human STEAP-1 [9]): 1.7 nM | Kd (human STEAP-1 [10]): 2 nM

B5: 48 Phage (Fab, V domains shown)
VH: EVQLVESGGGLVQPGGSLRLSCAASGYSITSDYAWNWVRQAPGKGLEWMGYISNSGSTSYNPSLKSRFTISRDNSKNTLYLQMNSLRAEDTAVYYCARERNYDYDDYYYAMDYWGQGTLVTVSS
VL: DIQMTQSPSSLSASVGDRVTITCKSSQSLLYRSNQKNYLAWYQQKPGKAPKLLIYWASTRESGVPSRFSGSGSGTDFTLTISSLQPEDFATYYCQQYYNYPRTFGQGTKVEIKR
notes: monovalent Fab-g3 phage display; also called V48M variant of the 120 graft
binding result (human STEAP-1 [1]): binds
